This is an account of results in patent US20120065254A1.

This assay has as its target C5a receptor (CD88) on differentiated U937 cells (UniProt P21730). Description: cell-based or functional assay.

C5a receptor (CD88) on differentiated U937 cells, sequence (P21730 whole entry): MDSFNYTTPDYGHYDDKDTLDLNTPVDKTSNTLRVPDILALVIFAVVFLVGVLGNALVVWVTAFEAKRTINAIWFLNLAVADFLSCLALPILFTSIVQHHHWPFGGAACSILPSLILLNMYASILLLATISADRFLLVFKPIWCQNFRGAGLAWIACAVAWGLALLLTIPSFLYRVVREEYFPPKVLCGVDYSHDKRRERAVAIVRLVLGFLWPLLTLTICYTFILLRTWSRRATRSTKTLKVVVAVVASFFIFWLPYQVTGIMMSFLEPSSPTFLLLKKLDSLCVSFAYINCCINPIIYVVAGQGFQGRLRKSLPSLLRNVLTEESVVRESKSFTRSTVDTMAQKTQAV

Take “recombinant human C5a (from UniProt P01031 678-751) (ligand)”: the chemotaxis of U937 cells, maximal effective concentration worked out at 1 nM.
Substance “His6-tagged monkey C5a (His6-macC5a) (ligand)” showed a chemotactic response of U937 cells of 0.8 nM.
